Test results published in the nanobody polyreactivity screen of Harvey et al. (2022).

Assay: yeast display, Sf9 membrane polyspecificity reagent, FACS + sequencing; frameworks hold sequencing errors
Method in brief: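 After 36–48 hours of galactose induction, yeast (Saccharomyces cerevisiae BJ5465) displaying a synthetic nanobody library were stained at 4 °C for 1 hour with 10% biotinylated, detergent-solubilized Sf9 membrane reagent. Streptavidin microbeads enriched the stained cells before FACS sorting into low and high (top ~1%) gates on anti-HA and streptavidin fluorescence. Each clone's polyreactivity label reflects its gate of origin.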

Row | Sequence | polyreactivity (PSR sort gate)
1 | QVQLVESGGGLVQAGGSLRLTCAASGFIFVTDAMGWYRQAPGKERELVAAITNSGGTTYYADSVKGRFTISRDNAKNTVYLQMNSLKPEDPAVYYCNKQWYTATYRESYYWGQGTQVTVSS | low polyreactivity
2 | QVQLVESGGGLVQAGGSLRLSCAASGSILTYNAMGWYRQAPGKERELVAAITSSGNTNYADSVKGRFTISRDNAKNTVYLQMNSLKPEDTAVYYCARDLREWGQGTQVTVSS | low polyreactivity
3 | QVQIVESGGGLVQAGGSLRLSCAASGRIFERYAMGWYRQAPGKERELVAGISISGGGTYYADSVKGRFTISRDNAKNTVYLQMNSLKPEHNAVYYCAGTFPREEYGYWGEGTQVTVSS | low polyreactivity
4 | QVQHVESGGGLVQAGGSLRLSCAASGFTFYSYAMGWYRQAPGKERELVASITSGGSTYYADSVKGRFTISRDNAKNTVYLQMNSLKPEDTAVYYCAAPAVKPRRSYYYWGQGTQVTVSS | high polyreactivity
5 | QVQLVESGGGLVQAGGSLRLSCAASGRTFYANAMVWYRQAPGKERELVAGISYSGGNTYYADSVKGRFTISRDNAKNTVYIQMNSLKPEDTAVYYCAAATVWEYWTYEDWGQGTQVTVSS | low polyreactivity
6 | QVQLLESGGGLVQAGGILRLSCAASGRIIVYYAMGWYRQAPGKERELVAAITRGGSTKYADSVKGRFTISRDNAKNTVYLQMNSLKPEDTAVYYCATATSRRSGYDYWGQGTQVSVSS | high polyreactivity
7 | QVQLVESGGGLVQAGGSLRLSCAASGRIFYPNAMGWYRQAPGKERELVAAISKRGGRTYYADSVKGRFTISRDNAKNTVYLQMNSLNPEDTAVYYCATRWASYPRTGRYDYWGQGTQVTVSS | high polyreactivity
8 | QVQLVESGGGLVQAGGSLRLSCAASGRIFPWNTMGWYRQAPGKERELVAGITSCGSTNYADSVKGRFTISRDNAKNTVYLQMNSLKPEDTAVYSCAARGYYWYISGVYEYEYWGQGTQVTVSS | low polyreactivity
9 | QVQLVESGGGIVQAGGSLRLSCSASGFSFSSYAMGWYRQAPGKERELVASITWSGGRTYYADSVKGRFTISRDNAKNTVYLQMNSLKPEDTAVYYCAPGDVNWSYSLLYTVVLFDSWGQGTQVTVSS | high polyreactivity
10 | QDQHVESGGGLVQAGGSLRLSCDASGRTFRKNAMGSYRQARGKERELVAAISWSGDSTYYADSVKGRFTISRDNAKNTVYLQMNSLKPEDSAVYYCAADSRYHFYYWRQGTQVTVSS | high polyreactivity
11 | QFQLVESGGGLVHAGGSLRLICAASGRILYKYAMGWYRQAPGKERELVAAISGSGGRTYYADSVKGRFTISRDNAKNTVYLQMNSLKPEDTPVYYCAAVHPFRHVMYDYWGQGTQVTVSS | low polyreactivity
12 | QVQHVESGGGLVQAGGSLRLSCAASGGTFYSYAMGWYRQAPGKERELVAAISRRGGSTYYADSVKGRFTISRDNAKNTVYLQLNSLKPEDTAVYYCAAKGPSYGVTRMYYWGQGTQVTVSS | high polyreactivity
13 | QVQLGESGGGLVQAGGSLRLSCAASGSTFAKYAMGWYRQAPGKERELVAAISSSGTCTYYADSVKGRFTISRDNAKNTVYLQMNSRKPEDTAVYYCAASYRNRYIAFYYWGQGTQVTVSS | low polyreactivity
14 | QVQLVESGGGLVQAGGSLRLICAATGITFITYVMGWYSQAPGKERELVAAISLRGGRTSYADSVKGRFTISRDNAKNTVYLQMNSLKPEDTAVYYCAARGGAYQNAYEYDYWGPGTQVTVSS | high polyreactivity
15 | QVQLVESGGGLVQAGGSLRLSCAASGRTFKYYAMGWYRPAPGKERELVAAISYNGGSTFYADSVKGRFTISRDNAKNTVYLQMNSLKPEDTAVYYCAAGPRGTGKYYWGQGTQVTVSS | high polyreactivity
16 | QVQLVESGVGLVQAAGSLRLSCASSGIICGEYAMGWYRQAPGNERELVAAISGSGSRTYYADSVKVRFTISRDIAKNTVFLQMNRLKPEDTAVYYCNSRRYIYNYDYWGQGTQVTVSS | high polyreactivity
17 | QVQLVESGGGLVQAGGSLRLSCAASGRIFYQYAMGWYRQAPGKERELVAAITRGGNTYYADSVKGRFTISRDNAKNTVYLQMNSLKPEDTAVYYCNARWHTTGYRYDYWGQGTQVTVSS | high polyreactivity
18 | QVQLVESGGGLVQAGGSLRLSCAASGLIFGWYAMGWDRQAPGKERELVAAITRSGGSTYYADSVKGRFTISRDTAKNTVYLQMHSLKPEDTAVYSCAAEIHYSYTRGYGYWGQGTQVTVSS | high polyreactivity
19 | QVQLVESGGGLVQAGGSLRLSCAASGSTFAWYAMGWYRTAPGKERELVAAISRTGRTYYADSVKGRFTMSRDNAKNTVYLQMNSLKPEDTAVYYCAARIERFYRDQRYDYWGQGTQVTVSS | high polyreactivity
20 | QVQLVESGGGLVQAGGSLRLSCAASGRTFGVYAMGWYRQAPGKERELVAAISRRAGNTYYADSVKGRFTISRDNAKNTVYLQMNSLKPEDTAVYYCAADFSRQYGYWGQGTQVTVSS | high polyreactivity
21 | QVQLVESGGRLVQAGGSLRLSCAASGITFYYYAMGWYRQAPGKERELVAAISSGGTRTYYADSVKGRFTISRDNAKNTVYLQMNSLKPEDTAVYYCAAPTYWHPTYDYWGQGTQVTVSS | high polyreactivity
22 | QVQLVESGGGLVQAGGSLRLSCAASGSTFGPYAMGWYRQAPGKERELVAAISRGGSTYYADSVKGRFTISRDNAKNTVYLQMNSLKPEDTAVYYCAARYVRVGYDYWGQGTQVTVSS | high polyreactivity

Row | Sequence | polyreactivity (PSR sort gate)
23 | QVQLVESGGGLVQAGGSLRLSCAASGSIFGSYAMGWYRPAPGKERELVAAITRAGSTNYADSVKGRFTISRDNAKNTVYLQMNSLKPEDTAVYYCAVRPGFGRSLWYGYWGQGTQVTVSS | low polyreactivity
24 | QVQLVESGGGLVQAGGSLRLTCAASGRPFGKNGMGWYRQAPGKEREWVAAISLSGGSTYYADSVKGRFTISRDYAKNTVYLQMNSLKPEDTAVYYCAAYGIRGPVYQYYFWGQGTQVTVSS | low polyreactivity
25 | QVQLVESGGGLVQAGGSLRLSCAASGRIFISYTMGWYRQAPGKDRELVAGIDSSGTSTYYADSVKGRFTISRDNAKNTVYLQMNSLKPEDTAVYYCNVDGNWKDTSTELDYWGQGTQVTVSS | low polyreactivity
26 | QVQLVESGGGLVQAGGSLRLSCAASGSIFASYAMGWYRQAPGKERELVAAISQNGSRTYYAVSVKGRFTISRDNAKYTVYLQMNSLKPEDTAVYYCAVLSRQYFRYGYDYWGQGTQVTVSS | high polyreactivity
27 | QVQLQESGADLEQAGGSLRLSFTASGTISDVRVMAWYRQAPGKERELVATISYVTITYYADSVKGRFTISRDSEKHRVSADDEPETGRYRGVLLRYYWGLGTQVTVSS | low polyreactivity
28 | QVQLVESAAGLVQAGGSLRLSCAASGGIFWVYAMGWYRQAPGKERELVAAISNSDTSTSDADSVKGRFTISRDTAKNTVYLQMYSLKPEDTAVYNCNGDSPSLSGDIWGQGTQVTVTS | low polyreactivity
29 | QVQLVESGGGLVQAGGSLRLSCAASGRIFSRYVMGWYRQAPGKERELVAAISWNGGSTYYADSVKGRFRISRDNAKNTVYFQMNSLIPEDTAVYYCAARVRVTGTYYTKYDYWGQGTQVTVSS | high polyreactivity
30 | QVQLVESGGGLVQAGGSLRLSCAASGFTFPQYAMGWYRQAPGKERELFAAISKRSGGTRYADSGKGRFTISRDNSKNTVYLHMKSLKPEDTAVNYCINYGQVPGYFTLEYLGQGTQVTVSS | high polyreactivity
31 | HVQLVESGGGLVQAGGSLRLSCAASGSTIGRYAIGWYRQAPGEERELVAAISYSGGSTYYADSVKGRFTISRDNAKNTVYIQMNSLKPEDTAAYYCAKGLSTGRAYRGYDYWGQGTQVTVSS | high polyreactivity
32 | QVQLVESGGGLVQAGGSLRLSCAASGLIFNLYAMGWYSQAPGKEREFVATITGIGGSTYYADSVKGRFTISRDNAKNTVYLQMNSLKPQDTAVYYCAADAWFLPYNYWGQGTQVTVSS | low polyreactivity
33 | QVQLVESGGGLVQAGGSLRLSCAASGRTFVEYAMGWYRPAPGKERELVAAITWDGGSTYYADSVKGRFTISRDNAKYTVYLQMNSLKPEDTAVYYCNADYRQITSYGFDYWGQGTQVTVSS | low polyreactivity
34 | QVQLVESGGGLVQAGGSLRLSCAASGIIFRYYAMGWYRQAPGKERELVATITIGGRTNYADSVKGRFTISRDNAKNTVYLQMNCLKPEDTAVYYCASRVYKYGSVYHRYDYWGQGTQVTVSS | high polyreactivity
35 | QVQLVESGGGLVQAGGSLRLSSAASGRIFYGYAMGWYRQAPGKERELVAGISKRGGSTRYADSVKGRFTISRDNAKNTVYLHMNSLKPEDTAVYYCNRLPYLHYAGRLTNYDYWGQGTQVTVSS | high polyreactivity
36 | QVQLVESGGGLVQAGGSLRLSCAASGSIFVVNTLGWYRQAPGKEREFVAPISYNGGRTSYADSVKGRFTISRDNAKNTVYLQMNSLKPEDTEVYYCAAGGSVPRAYHISYFTQYDYWGQGTQVTVSS | low polyreactivity
37 | QVQLVESGGGLVQAGGSLRLSCAASGGIFQLNAMGWYSQAPGKERELVAAISGSGGSTYYADSVKGRFTISRDNAKNTVYLQMNSLKPEDTAVYYCAVRLTITDYDYWGQGTQVTVSS | low polyreactivity
38 | QVQLVESGGGLVQAGGSLRLSCAAYGFTFASNVMGWYRQAPGKDRELVAAITSGASTNYADSVKGRFTISRDNAKNTVYLQMNSLKPVDTAVYYCAAGRQWYVFYEFDYWGQGTQVTVSS | high polyreactivity
39 | QVQLVESGGGLVQAGGSLRLSCAASGSIFGNAMGWYRQAPGKERELVAAITRGVSTYYADSVKGRFTISRDNAKNTVYLQMNSLKPEDTAVYYCNKTYVRGVHGVYLPITSYDYWGQGTQVTVSS | low polyreactivity
40 | QVQLVESGGGLVQAGGSLRLSCGASGFIFVRYAMGWYRQAPGKERELVAAITKGGGRTYYADSVKGRFTISRDNAKNTVYLQMNSLKPEDTAVYYCATGGAHGRERDYGGQGTQVTVSS | high polyreactivity
41 | QVQLEESGGGLVQAGGSLRLSCAASGRTFIKYAMGWYRQAPVNESELVAAITYSAGSTSYADSVKGRFTISRDNAKNTVYLQMNSRKPVDTAVYYCARRTRSYGYRSDYYYWGQGTQVTVSS | low polyreactivity
42 | QVQLEESGGGLVQEGGSLRLSCAASGRIFKWNAMGLYRQAPGKERELVAAISLSGGSTYYADSVKGRFTISRDNAKNTVYLQMNSLKPEDTAVYYCNAYAYHRYGYWGQGTQVTVSS | high polyreactivity
43 | QVQLVVSGGGLVQAGGSLRLSCAASGFTFSSNAMGWYRQAPGKECELVAAISTSGASTYYADSVKGRFTISRDNAKNTVYLQMNSLKPADSAVYYCNVPQWHRWYGYPGEDYDYWGQGTQVTVSS | high polyreactivity
